# Measurements reported in article PMC8136818.
# System: SmpO45 (Staphylococcus aureus plasmid pWBG745)
# Experiment: SPR
# Settings: SPR: 10 mM HEPES, 150-300 mM NaCl, 3 mM EDTA, 0.05% Tween 20, 1 uM protein (pH, temperature not given); EMSA: Li-Cor binding buffer, 0.5 ug/ul herring sperm …
row,Sequence,binding signal [% Rmax]
1,CCCCATAAAATATGGGGTCATATTTCCCTT / AAGGGAAATATGACCCCATATTTTATGGGGCCTACCCTACGTCCTCCTGC [OT45.10],30
2,GACACTATAGTTTATTGTGGGGTCACTTTA / TAAAGTGACCCCACAATAAACTATAGTGTCCCTACCCTACGTCCTCCTGC [OT45.3],30
3,TTTATTGTGGGGTCACTTTAAATTCTTTAA / TTAAAGAATTTAAAGTGACCCCACAATAAACCTACCCTACGTCCTCCTGC [OT45.4],30
